These results are taken from FireProtDB (doi:10.1016/0022-2836(91)90566-o).

The conditions of this data set: Enterobacteria phage fd; pH 7; 25 °C; GdnHCl; CD; MOPS 50 mM; NaCl 100 mM; reversible: yes; whole UniProt chain shown.

B1: DNA-Binding protein G5P wild type, P69542 (protein)
chain: MIKVEIKPSQAQFTTRSGVSRQGKPYSLNEQLCYVDLGNEYPVLVKITLDEGQPAYAPGLYTVHLSSFKVGQFGSLMIDRLRLVPAK
Consider B1, for which the denaturant m value amounted to 3.6 kcal/mol/M, the “denaturant midpoint (higher = more stable)” value stood at 2.61 M and the unfolding free energy was 9 kcal/mol.
